The source of these data is US6664090B1, “Carboxylesterase nucleic acid molecules, proteins and uses thereof” (Heska Corporation, priority 1996, dated 2003).

Data set [1] in a line: general carboxylesterase (CE) activity assay, hydrolysis of α-napthyl acetate, Fast Blue, 590 nm. It counts as biochemical. The following applies: purified recombinant protein from S. frugiperda:pVL-nfE91600 supernatant, size exclusion fractions. The procedure: Tissue samples and soluble extracts were prepared as described above in Example 1, except not labelled, from unfed (UF) and bovine blood-fed 1st instar flea larvae, bovine blood-fed 3rd instar flea larvae, bovine blood-fed prepupal flea larvae, unfed whole adult fleas, cat blood-fed adult (ACF) whole fleas, cat blood-fed adult fleas that have had their heads and midguts removed (referred to herein as fed adult partial fleas), unfed adult flea midguts and cat blood-fed adult flea midguts. About 5 tissue equivalents of each tissue were assayed for general CE activity using the following method. Tissue samples of about 5 μl were added to separate wells of flat-bottomed microtiter plate (available from Becton Dickinson, Lincoln Park, N.J.). A control well was prepared by adding about 5 μl of Tris buffer to an empty well of the plate. About 95 μl of 25 mM Tris-HCl (pH 8.0) was then added to each sample to increase the volume in each well to about 100 μl. About 100 μl of 0.25 mM α-napthyl acetate (available from Sigma, St. Louis, Mo.) dissolved in 25 mM Tris-HCl (pH 8.0) was then added to each well. […]
The microtiter plate was then analyzed using a Cambridge Technology, Inc. (Watertown, Pa.) model 7500 Microplate Reader set to 590 nm. The absorbance value for the control sample was subtracted from absorbance values of experimental samples, such that the background value was zero.

Data set [2] can be described thus: juvenile hormone esterase (JHE) activity assay, hydrolysis of 3H-juvenile hormone to juvenile hormone acid. Type of data set: biochemical. The note with it: purified recombinant protein from S. frugiperda:pVL-nfE91600 supernatant, size exclusion fractions. The procedure: Unlabeled juvenile hormone (JH; available from ICN Biomedicals, Inc., Aurora, Ohio) was diluted in hexane to concentration of about 0.025 M. Labeled 10-^3H-juvenile hormone (^3H-JH; available from Dupont-NEN) was diluted in hexane to concentration of about 80,000 cpm/μl. A JH substrate mixture was prepared by mixing about 20 μl of unlabeled JH with about 80 μl of ^3H-JH (about 5 μCi) in a 4 ml screw cap vial. The substrate mixture was then covered with nitrogen (i.e., “blanketed”) and the solvent contained in the mixture was evaporated by heating the mixture at 35° C. When just dry, about 1 ml of absolute anhydrous ethanol (final concentration 5×10^−4 M, or 6400 cpm/μl) was added to the vial. The substrate mixture was then stored at −20° C.
About 5 equivalents of each tissue (about 5 μl of protein) was added into the bottom of a small glass autosampler vial. About 95 μl of Tris-buffered saline (TBS) was added to each vial to bring the final volume in each vial to about 100 μl. Two control samples were also prepared by adding 100 μl TBS to two separate vials. […]
To measure labeled juvenile hormone acid, about 250 μl isooctane was added to each vial. […] The amount of ^3H-juvenile hormone acid contained in each vial was determined using a Beckman LS-1801 liquid scintillation counter (available from Beckman, Fullerton, Calif.).

B1: PfE9528: full-length flea esterase protein of about 528 amino acids, SEQ ID NO:37, encoded by nfE92007 (protein, listed as Ctenocephalides felis)
chain: MADLQVTLLQGTLKGKEQISEKGNVFHSYSGIPYAKPPVGDLRFKPPQPAEPWSGVLDASKEGNSCRSVHFIKKIKVGAEDCLYLNVYVPKTSEKSLLPVMVWIHGGGFFMGSGNSDMYGPEYLMDYGIVLVTFNYRLGVLGFLNLGIEEAPGNVGLMDQVEALKWVKNNIASFGGDPNNVTIFGESAGGASVHYLMLSDLSKGLFHKAISQSGSAFNPWALQHDNNKENAFRLCKLLGHPVDNETEALKILRQAPIDDLIDNRIKPKDKGQLIIDYPFLPTIEKRYQNFEPFLDQSPLSKMQSGNFTKVPFICGYNSAEGILGLMDFKDDPNIFEKFEADFERFVPVDLNLTLRSKESKKLAEEMRKFYYQDEPVSSDNKEKFVSVISDTWFLRGIKNTARYIIEHSSEPLYLYVYSFDDFGFLKKLVLDPNIEGAAHGDELGYLFKMSFTEFPKDLPSAVVNRERLLQLWTNFAKTGNPTPEINDVITTKWDKATEEKSDHMDIDNTLRMIPDPDAKRLRFWNKFL
Turning to B1, the carboxylesterase activity entry in data set [1] is recorded as “carboxylesterase activity”. Also, in data set [2], the “juvenile hormone esterase activity” value is listed as “juvenile hormone esterase activity”.
